{"source": "patent US20030027246A1", "about": "“Immunogenic peptides derived from prostate-specific membrane antigen (PSMA) and uses thereof” (priority 2000, published 2003)", "key": {"A2Kb transgenic mouse": {"tested_on": "A2Kb transgenic mouse", "test": "Immunogenicity of PSMA derived peptides in A2Kb transgenic mice (51Cr-release CTL assay)", "assay_type": "in vivo", "settings": "100.0 μg peptide + I-Ab-restricted peptide in IFA s.c.; splenocytes re-stimulated 6-7 days; 4 hr 51Cr-release vs peptide-pulsed P815-A2Kb targets", "procedure": "The A2Kb transgenic mouse was used to assess the immunogenicity of the HLA-A0201 binding PSMA peptides. Mice of the B1O background (transgenic for the A2Kb chimeric gene) were purchased from the Scripps Clinic in California, USA. Mice were injected subcutaneously at the base of the tail with a dose of inoculum prepared by emulsifying 100.0 μg of the test peptide and 100.0 μg of an I-A^b-restricted peptide (described in Milich, D. R. et al. (1987) J. Immunol 139: 1223-1231) in incomplete Freund's adjuvant (IFA). Spleens of the experimental animals were collected on the 10th or 11th day post immunization. Spleenocytes of the experimental mice were prepared and cultured to enrich for CTLs before being assessed for effector activity. In vitro re-stimulation of the in vivo generated CTLs was performed by co-culturing in a 25 cm^2 tissue culture flask 3×10^7 responder cells (i.e. spleenocytes) with 1.3×10^7 irradiated autologous LPS (lipopolysaccharide)-blasts which had been pulsed with the respective peptide (100.0 μg per 10^8 cells). Cultures were kept in a 37° C., humidified CO2 incubator for 6-7 days before being tested for effector function in a standard 4 hr in vitro ^51Cr-release CTL assay as follows. […] Supernatant aliquots were then removed and counted for radioactivity."}, "[1]": {"molecular_target": "T1, HLA-A0201 molecules on T2 cells (Homo sapiens, UniProt P04439, D140Y/D185E/D98H/E176V/E277Q/G131W/G231S/I119V/I121R/I166T/I218V/L300P/L318F/N151K/N90K/P208A/P217A/Q86G/Q94H/R138H/R169H/T345S)", "T1 construct": "endogenous in cells; host or cells: T2 cell line (Dr. Peter Creswell, Yale University)", "test": "HLA-A0201 binding/stabilization of PSMA derived peptides on T2 cells (BB7.2 flow cytometry)", "assay_type": "cell-based", "settings": "for Fluorescence Index (FI): T2 cells; for HLA-A0201 binding as judged by Fluorescence Index (FI) values: membrane-bound HLA-A0201 on T2 cells, result in words", "procedure": "The ability of the PSMA derived peptides described in Table 1 to stabilize membrane-bound HLA-A0201 molecule was assessed utilizing the T2 cell line (Dr. Peter Creswell, Yale University). The cell line has been well documented to have a defective TAP (i.e. Transporter for Antigen Processing) transporter function. […] The stability of the surface HLA-A0201 molecules can be restored upon interaction with suitable exogenous peptides. The stabilization of the conformation of the class 1 MHC molecules is accompanied by the formation of an immunodominant epitope recognized by a mouse monoclonal antibody (designated BB7.2; American Type Culture Collection (ATCC)). Thus, the detection of this specific epitope is indicative of stable membrane-bound HLA-A0201 molecules loaded with peptide.\nT2 cells were propagated in Iscove's complete medium (Iscove's medium supplemented with 10% heat-inactivated bovine serum, 120.0 units per ml of penicillin G sodium, 120 μg per ml of streptomycin sulphate, and 0.35 mg per ml of L-glutamine). The ability of PSMA peptides (Table 1) to bind and stabilize surface HLA-A0201 molecules on T2 cells was determined utilizing a protocol documented in the art (Deng, Y. (1997) J Immunol 158:1507-1515). In essence, 0.5×10^6 T2 cells were incubated with 125.0 μM of the test peptide in 200.0 μl of serum-free culture medium (Iscove's medium supplemented with 120.0 units per ml of penicillin G sodium, 120.0 μg per ml of streptomycin sulphate and 0.35 mg per ml of L-glutamine) overnight at 37° C. Subsequently, cells were washed twice with Iscove's medium (without bovine serum) to remove free PSMA peptide. To the cell pellet was added 1.0 ml of complete Iscove's medium (supplemented with fetal bovine serum (10% final)) containing 5.0 μg per ml of brefeldin A (Sigma), 12.5 μg per ml of anisomycin (Sigma) and 5.0 μg per ml of cyclohexamide (Sigma). […] The cells were subsequently incubated 30 min on ice prior to two washes with ice-cold PBA (phosphate buffered saline (pH 7.2) containing 2.0% bovine serum). 100.0 μl of PBA containing 5.0 μg of monoclonal antibody BB7.2 was added to each test sample. The reaction was allowed to proceed on ice for 45 min. Cells were then washed three times with ice-cold PBA. The binding of BB7.2 was detected via the addition of 100.0 μl of PBA containing 1.0 μg of goat anti-mouse IgG-Fc fluorescein (FITC) conjugate (BETHYL Laboratories Inc.). After a 30 min incubation on ice, cells were twice washed with ice-cold PBA, and twice with ice-cold PBS (pH 7.2). Cells were immediately fixed by the addition of 50.0 μl of 1.0% paraformaldehyde. Samples were analyzed by Flow Cytometry. Results were expressed in units of Fluorescence Index (FI), calculated by the equation: [formula]\nAn FI value of 0.5 or greater was deemed to be significant."}, "[2]": {"settings": "125.0 μM test peptide, overnight at 37° C., then 3.0 hr de-stabilization step, FI of 0.5 or greater deemed significant"}}, "note": "Marks after values point to notes of the source that are not given here."}
{"sequence": "ALFDIESKV (CLP337) [CLP-337, PSMA derived peptide, amino acid position 711-719]", "values": [{"measurement": "Immunogenicity: epitope-specific CTL responses (FIG. 1)", "setting": "A2Kb transgenic mouse", "value": "immunogenic and capable of eliciting epitope-specific CTL responses"}]}
{"sequence": "ELAHYDVLL (CLP330) [CLP-330, PSMA derived peptide, amino acid position 109-117]", "values": [{"measurement": "Fluorescence Index (FI)", "setting": "[1]; [2]", "value": 0.7}, {"measurement": "HLA-A0201 binding as judged by Fluorescence Index (FI) values", "setting": "[1]", "value": "demonstrated HLA-A0201 binding"}]}
{"sequence": "LDSVELAHY (CLP324) [CLP-324, reference compound]", "values": [{"measurement": "Fluorescence Index (FI)", "setting": "[1]; 125.0 μM peptide, analysis did not include 3 hr de-stabilization step", "value": "0**"}, {"measurement": "HLA-A0201 binding as judged by Fluorescence Index (FI) values", "setting": "[1]", "value": "does not exhibit binding"}]}
{"sequence": "LLHETDSAV [CLP-326]", "values": [{"measurement": "HLA-A0201 binding as judged by Fluorescence Index (FI) values", "setting": "[1]", "value": "demonstrated HLA-A0201 binding"}]}
{"sequence": "LMYSLVHNL [CLP-333]", "values": [{"measurement": "HLA-A0201 binding as judged by Fluorescence Index (FI) values", "setting": "[1]", "value": "demonstrated HLA-A0201 binding"}]}
{"sequence": "MMNDQLMFL [CLP-336]", "values": [{"measurement": "HLA-A0201 binding as judged by Fluorescence Index (FI) values", "setting": "[1]", "value": "demonstrated HLA-A0201 binding"}, {"measurement": "Immunogenicity: epitope-specific CTL responses (FIG. 1)", "setting": "A2Kb transgenic mouse", "value": "immunogenic and capable of eliciting epitope-specific CTL responses"}]}
{"sequence": "NLNGAGDPL [CLP-331]", "values": [{"measurement": "Fluorescence Index (FI)", "setting": "[1]; [2]", "value": 0}]}
{"sequence": "NMKAFLDEL [CLP-329]", "values": [{"measurement": "Fluorescence Index (FI)", "setting": "[1]; [2]", "value": 0}]}
{"sequence": "PMFKYHLTV [CLP-334]", "values": [{"measurement": "Fluorescence Index (FI)", "setting": "[1]; [2]", "value": 0}]}
{"sequence": "VLAGGFFLL (CLP328) [CLP-328, PSMA derived peptide, amino acid position 27-35]", "values": [{"measurement": "Fluorescence Index (FI)", "setting": "[1]; [2]", "value": 1.3}, {"measurement": "HLA-A0201 binding as judged by Fluorescence Index (FI) values", "setting": "[1]", "value": "demonstrated HLA-A0201 binding"}]}
{"sequence": "VLRMMNDQL [CLP-335]", "values": [{"measurement": "Fluorescence Index (FI)", "setting": "[1]; [2]", "value": 0.3}]}
{"sequence": "WLCAGALVL (CLP327) [CLP-327, PSMA derived peptide, amino acid position 20-28]", "values": [{"measurement": "Fluorescence Index (FI)", "setting": "[1]; [2]", "value": 0}]}
